The text below walks through data of US20250154263A1 (FEINSTEIN INSTITUTES FOR MEDICAL RESEARCH, published 2025).

This experiment concerns the target T1, CLECL1 on the cell surface (CLECL1+ CLL PF cells) (human, UniProt Q8IZS7 1-167).
T1 construct: Native CLECL1 on patient CLL cells or the MEC1 CLL line; also called DCAL-1
T1 sequence: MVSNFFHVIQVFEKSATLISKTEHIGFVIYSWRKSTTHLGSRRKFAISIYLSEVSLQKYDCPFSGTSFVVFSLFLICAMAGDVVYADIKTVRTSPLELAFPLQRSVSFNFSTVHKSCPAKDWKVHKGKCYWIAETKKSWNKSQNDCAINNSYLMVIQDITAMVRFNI
The experiment is described as follows: flow cytometry (FIG. 8E; cells not named in the legend). (In general: Flow cytometry measures light scatter and fluorescence of single cells or particles in a stream.)

B1: mAb 17.2 (antibody, mouse IgG1, V domains shown)
VH: EVQLQQSGAELVRSGASVKLSCTTSGFNIKDFYIHWVRQRPEQGLEWIGWIDPKNDDTEYAPRFQGKATVTADTSSNTAYLHLSGLTSEDTAVYYCNGRYPTMDFWGQGTSVT
VL: EIVLTQSPITMTTSPGEKITITCSASSSISSHYLHWYQQKPGFSPKLLIYRASNLASGVPTRFSGSGSGTSYSLTIDTMEAEDVATYFCQQGSSLPLTFGAGTKLELK
notes: also called 17.2.3; hybridoma #17
With B1, the binding result is “binds”.

B2: mAb 243.6 (antibody, mouse IgG1, V domains shown)
VH: EVQLQQSGTVLVRSGASVKLSCTASGFNIKEYYIHWVKQRPEQGLEWIAWIDLENGESEYAPKFQGKATLTADTSSNTAYLQLSGLTSEDTAVYYCNAFHGNYAHNYAIDYWGQGTSVTVSQ
VL: DIVMSQSPSSLAVSAGEKVTMTCKSSQSLLNSRTRKNYLAWYQQKPGQSPKLLIYWASTRKSGVPDRFTGSGSGTDFTLTISSVQAEDLAVYYCKQSYNLRTFGGGTKLEIK
notes: also called 243.6.1
Regarding B2, the binding result is “binds”.
